In the Human Domainome abundance scans (Beltran et al. 2025):

B1: Double-stranded RNA-binding protein Staufen homolog 1, residues 183 to 249; numbered along this chain, O95793 (parent)
chain: KSEISQVFEIALKRNLPVNFEVARESGPPHMKNFVTKVSVGEFVGEGEGKSKKISKKNAAIAVLEEL

Variants of: B1
Test: abundance fitness (aPCA) (normalised: wild type 0, dead -1); higher = more abundant; growth selection in yeast, the domain comes from the species named
Details: Homo sapiens

Abundance fitness, by site and new letter:
P28: I -0.322, K -0.218, A -0.155, F -0.35, S -0.089, V -0.278, C -0.157, M -0.303, D -0.167, H -0.123, G -0.111, Y -0.342, E -0.153, T -0.177, N -0.152, W -0.316, Q -0.202
H30: K 0.022, P -0.221, Q -0.11, E -0.037, A -0.139, R -0.077, I -0.288, W -0.365, F -0.278, V -0.353, Y -0.208, G -0.017, C -0.207, M -0.115, L -0.255, S -0.114, N 0.078
N19: D -0.229, K 0.082, C 0.027, W -0.246, S 0.006, G -0.323, T 0.037, M -0.048, F -0.062, L -0.069, A -0.047, P -0.698, R 0.077, V -0.101, H 0.011, I -0.15, Y -0.167
V22: E -0.033, T 0.034, W -0.36, M -0.081, P 0.056, A -0.022, D -0.102, H -0.083, N -0.114, S -0.059, L 0.016, R 0.069, Q -0.031, C -0.087, F -0.165, I -0.005, Y -0.094, K 0.105
L12: N 0.081, A 0.111, R 0.127, C -0.06, M 0.011, I -0.026, Q 0.01, W -0.063, P -0.645, Y 0.066, S 0.028, G -0.035, K -0.029, T -0.155, F -0.075, D -0.047, H -0.032, E -0.085
G27: A -0.239, C -0.366, L -0.418, S -0.267, W -0.48, N -0.307, I -0.223, K -0.207, E -0.339, D -0.259, V -0.457, H -0.326, F -0.436, Y -0.437, T -0.309, Q -0.259, M -0.395
R14: L -0.139, W -0.25, K -0.212, G -0.361, P -0.594, S -0.31, M 0.014, T -0.371, V -0.6, E -0.334, A -0.204, D -0.487, F -0.232, Y -0.048, N -0.179, H -0.155, Q -0.188
P17: A -0.09, I -0.323, K 0.031, C -0.447, Y -0.288, H -0.093, W -0.56, Q -0.037, M -0.172, R -0.025, S -0.008, E -0.09, G -0.24, N -0.112, T 0.012, L -0.196, V -0.174
S26: P -0.27, T 0.085, F -0.348, Q -0.337
P29: T -0.111, E -0.022, S -0.04, H -0.105, V -0.205, C -0.198, A -0.005, M -0.114, D -0.051, L -0.273, R -0.08, W -0.274, I -0.205, F -0.28, Y -0.259, G 0.052, K -0.061
R24: V -0.102, E -0.031, G -0.196, Y -0.246, I -0.17, H -0.118, L -0.129, W -0.256, S -0.065, A -0.132, K 0.016, C -0.045, T -0.085, Q -0.085, D -0.141, N -0.207, P -0.035
K13: L -0.213, C -0.296, Q -0.079, V -0.215, I -0.26, R -0.071, A -0.019, Y -0.323, S -0.194, G -0.308, M -0.213, D -0.327, W -0.59, E -0.183, T -0.246, P -0.528, F -0.436
A23: D -0.108, T 0.033, S -0.063, W -0.141, P 0.021, E -0.102, F -0.121, H 0.066, L 0.008, Y -0.086, K -0.052, Q -0.005, C -0.055, I 0.011, M 0.06
L16: H -0.708, P -0.663, Y -0.454, F -0.424, E -0.472, D -0.54, A -0.421, K -0.432, R -0.587, C -0.515, W -0.063, Q -0.128, G -0.863, I -0.196, M -0.131, T -0.594, S -0.609, V -0.176, N -0.716
E21: V -0.023, D -0.105, P -1.05, A -0.059, M -0.181, Y -0.172, W -0.009, I -0.204, K -0.049, S -0.078, G -0.165, Q 0.014, H -0.072, N -0.226, R -0.084, L -0.133, F -0.055, C -0.114
A11: W -0.91, Y -0.967
E25: K 0.046, G -0.075, S 0.002, P -0.209, I -0.141, C -0.104, Q 0.021, H -0.052, A -0.081, L -0.083, Y -0.151, V -0.025, T 0.016, M -0.011, R -0.046
N15: A -0.198, S -0.146, F -0.557, L -0.531, G 0.025, M -0.296, T -0.431, V -0.785, E -0.231, Q -0.144, H 0.006, I -0.629, Y -0.637, R -0.155, D -0.156, C -0.325
F20: N -0.779, R -0.569, L -0.286, S -0.429, I -0.114, W 0.036, K -0.45, Q -0.657, D -0.613, T -0.395, Y -0.291, P -0.654, C -0.361, M -0.305, H -0.699, A -0.499
K32: A -0.037, D -0.332, G 0.001, F -0.516, E -0.077
M31: W -0.208, E 0.103, R 0.025, D 0.199, F -0.263, S 0.113, C 0.073, Q 0.049, N 0.083, T 0.019, H 0.079, G -0.013, K 0.104, V -0.099, Y -0.089, L -0.098, I -0.12, P -0.132
V18: Y -0.739, G -0.707, W -0.861, R -0.657, P -0.402, L -0.404, Q -0.647, F -0.832, N -0.906, T -0.784, M -0.396, C -0.218, E -0.507, D -0.746, S -0.465, K -0.562, A -0.377
